The assay has as its target human plasma fibronectin (human).

human plasma fibronectin (human), sequence (P02751 other isoform, or with tags, fused parts or gaps): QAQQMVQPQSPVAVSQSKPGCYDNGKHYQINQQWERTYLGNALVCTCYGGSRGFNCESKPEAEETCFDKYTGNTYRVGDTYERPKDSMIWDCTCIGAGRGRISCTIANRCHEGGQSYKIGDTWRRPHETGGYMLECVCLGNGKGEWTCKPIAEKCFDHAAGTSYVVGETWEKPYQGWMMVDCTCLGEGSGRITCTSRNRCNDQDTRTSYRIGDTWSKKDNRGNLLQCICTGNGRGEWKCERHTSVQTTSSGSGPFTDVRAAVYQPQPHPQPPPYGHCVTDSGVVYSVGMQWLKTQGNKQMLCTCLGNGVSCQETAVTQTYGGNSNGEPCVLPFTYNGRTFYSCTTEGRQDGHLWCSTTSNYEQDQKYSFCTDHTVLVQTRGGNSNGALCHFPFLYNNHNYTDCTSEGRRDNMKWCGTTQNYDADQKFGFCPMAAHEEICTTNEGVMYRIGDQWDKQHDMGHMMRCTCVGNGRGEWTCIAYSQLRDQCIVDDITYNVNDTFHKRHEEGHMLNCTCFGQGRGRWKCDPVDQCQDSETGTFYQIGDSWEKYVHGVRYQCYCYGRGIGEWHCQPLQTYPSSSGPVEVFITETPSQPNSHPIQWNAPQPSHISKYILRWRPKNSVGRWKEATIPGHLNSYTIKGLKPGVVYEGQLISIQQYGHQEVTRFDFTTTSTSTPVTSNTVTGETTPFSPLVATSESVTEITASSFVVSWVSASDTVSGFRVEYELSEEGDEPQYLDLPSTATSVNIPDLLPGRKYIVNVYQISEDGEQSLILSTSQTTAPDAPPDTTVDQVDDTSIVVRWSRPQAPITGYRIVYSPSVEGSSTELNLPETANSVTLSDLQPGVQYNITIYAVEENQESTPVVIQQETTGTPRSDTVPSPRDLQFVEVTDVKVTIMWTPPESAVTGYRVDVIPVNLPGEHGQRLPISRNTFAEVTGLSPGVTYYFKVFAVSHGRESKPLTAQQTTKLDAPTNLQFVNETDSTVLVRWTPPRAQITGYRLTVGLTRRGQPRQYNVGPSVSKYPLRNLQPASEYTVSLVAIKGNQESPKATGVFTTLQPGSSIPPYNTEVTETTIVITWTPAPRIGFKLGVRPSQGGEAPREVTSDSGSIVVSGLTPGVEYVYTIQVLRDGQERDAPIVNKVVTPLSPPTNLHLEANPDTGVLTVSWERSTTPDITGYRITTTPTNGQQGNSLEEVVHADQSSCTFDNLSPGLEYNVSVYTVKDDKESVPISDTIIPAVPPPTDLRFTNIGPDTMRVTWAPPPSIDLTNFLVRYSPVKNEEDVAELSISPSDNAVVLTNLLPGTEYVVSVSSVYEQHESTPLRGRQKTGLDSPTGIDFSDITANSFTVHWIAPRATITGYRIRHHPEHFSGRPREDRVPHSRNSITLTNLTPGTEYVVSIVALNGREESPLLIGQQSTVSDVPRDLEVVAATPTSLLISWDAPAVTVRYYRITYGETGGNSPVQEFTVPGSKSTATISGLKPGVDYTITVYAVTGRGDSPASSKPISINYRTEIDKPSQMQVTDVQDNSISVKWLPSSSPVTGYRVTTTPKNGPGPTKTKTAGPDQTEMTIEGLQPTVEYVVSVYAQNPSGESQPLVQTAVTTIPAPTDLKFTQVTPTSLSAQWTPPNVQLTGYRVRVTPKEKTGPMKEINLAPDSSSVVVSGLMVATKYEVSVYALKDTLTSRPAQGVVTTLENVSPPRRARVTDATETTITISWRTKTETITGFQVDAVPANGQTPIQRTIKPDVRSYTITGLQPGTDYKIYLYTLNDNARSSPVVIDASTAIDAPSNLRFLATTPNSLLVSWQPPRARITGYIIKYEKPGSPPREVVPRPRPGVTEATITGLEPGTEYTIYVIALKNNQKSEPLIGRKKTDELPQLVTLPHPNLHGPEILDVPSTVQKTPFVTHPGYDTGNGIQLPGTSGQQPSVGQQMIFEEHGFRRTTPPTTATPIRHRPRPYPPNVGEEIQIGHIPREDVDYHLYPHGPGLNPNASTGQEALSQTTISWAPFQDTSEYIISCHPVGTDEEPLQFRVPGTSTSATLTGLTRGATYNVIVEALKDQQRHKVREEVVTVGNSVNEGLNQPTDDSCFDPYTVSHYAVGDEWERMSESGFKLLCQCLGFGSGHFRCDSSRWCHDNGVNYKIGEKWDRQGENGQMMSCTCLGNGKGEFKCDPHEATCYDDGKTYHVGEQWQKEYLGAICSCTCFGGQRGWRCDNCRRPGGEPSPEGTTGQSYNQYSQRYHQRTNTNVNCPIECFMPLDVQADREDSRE

B1: recombinant embigin extracellular domain GST-fusion protein (EMB-GST) (domain or fragment)
chain: DGSAPDSPFTSPPLREEIMANNFSLESHNISLTEHSSMPVEKNITLERPSNVNLTCQFTTSGDLNAVNVTWKKDGEQLENNYLVSATGSTLYTQYRFTIINSKQMGSYSCFFREEKEQRGTFNFKVPELHGKNKPLISYVGDSTVLTCKCQNCFPLNWTWYSSNGSVKVPVGVQMNKYVINGTYANETKLKITQLLEEDGESYWCRALFQLGESEEHIELVVLSYLVP
The term Kd denotes the concentration at which binding is half-saturated. Higher therefore signals lower affinity. Molecule B1 yielded a dissociation constant Kd below 50 nM.

The record behind these values is publication PMC9616737 (2022).
